Assay results taken from article PMC9482650, “Quantitative fragmentomics allow affinity mapping of interactomes” (Nature Communications, 2022).

Key:
Test in all cases: holdup assay
Parameters in all cases: key: below the threshold = too weak to quantify, mostly under pKd 3.1 to 4
APBA3_1, O96018 = molecular target: T1, APBA3_1, O96018
T1 sequence (O96018 389-490, limits assumed, looked up): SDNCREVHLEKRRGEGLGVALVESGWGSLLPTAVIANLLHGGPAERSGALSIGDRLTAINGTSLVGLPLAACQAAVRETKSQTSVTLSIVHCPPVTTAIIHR

CARD11, Q9BXL7 = molecular target: T2, CARD11, Q9BXL7
T2 sequence (Q9BXL7 662-765, limits assumed, looked up): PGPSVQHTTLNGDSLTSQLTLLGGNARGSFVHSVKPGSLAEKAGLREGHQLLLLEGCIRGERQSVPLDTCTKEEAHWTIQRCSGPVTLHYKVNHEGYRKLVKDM

DFNB31_1, Q9P202 = molecular target: T3, DFNB31_1, Q9P202
T3 sequence (Q9P202 135-233, limits assumed, looked up): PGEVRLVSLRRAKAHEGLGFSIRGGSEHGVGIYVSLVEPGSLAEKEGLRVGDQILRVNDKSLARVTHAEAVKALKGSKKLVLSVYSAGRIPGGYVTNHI

DLG2_2, Q15700 = molecular target: DLG2_2, Q15700
Chain of DLG2_2, Q15700 (Q15700 189-283): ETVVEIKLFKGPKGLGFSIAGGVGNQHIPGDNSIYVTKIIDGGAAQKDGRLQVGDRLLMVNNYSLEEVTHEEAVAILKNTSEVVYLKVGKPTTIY

DLG4_1, P78352 = molecular target: DLG4_1, P78352
Chain of DLG4_1, P78352 (P78352 62-152): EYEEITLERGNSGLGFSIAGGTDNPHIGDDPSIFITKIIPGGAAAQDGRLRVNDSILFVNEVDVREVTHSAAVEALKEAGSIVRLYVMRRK

FRMPD2_2, Q68DX3 = molecular target: FRMPD2_2, Q68DX3
Chain of FRMPD2_2, Q68DX3 (Q68DX3 944-1038): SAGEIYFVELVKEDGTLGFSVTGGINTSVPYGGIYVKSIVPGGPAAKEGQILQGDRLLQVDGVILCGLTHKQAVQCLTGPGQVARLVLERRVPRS

GRASP, Q7Z6J2 = molecular target: GRASP, Q7Z6J2
Chain of GRASP, Q7Z6J2 (Q7Z6J2 96-193): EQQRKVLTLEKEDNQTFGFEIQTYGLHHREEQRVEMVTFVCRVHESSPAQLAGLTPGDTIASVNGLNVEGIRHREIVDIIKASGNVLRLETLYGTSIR

GRID2IP_1, A4D2P6 = molecular target: GRID2IP_1, A4D2P6
Chain of GRID2IP_1, A4D2P6 (A4D2P6 1-87): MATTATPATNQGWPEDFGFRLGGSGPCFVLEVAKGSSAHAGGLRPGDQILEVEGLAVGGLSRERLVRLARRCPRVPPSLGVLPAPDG

GRIP1_3, Q9Y3R0 = molecular target: T4, GRIP1_3, Q9Y3R0
T4 sequence (Q9Y3R0 247-346, limits assumed, looked up): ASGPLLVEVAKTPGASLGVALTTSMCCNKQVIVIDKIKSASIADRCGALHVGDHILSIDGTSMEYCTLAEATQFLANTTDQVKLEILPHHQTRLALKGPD

GRIP2_4, Q9C0E4 = molecular target: GRIP2_4, Q9C0E4
Chain of GRIP2_4, Q9C0E4 (Q9C0E4 446-548): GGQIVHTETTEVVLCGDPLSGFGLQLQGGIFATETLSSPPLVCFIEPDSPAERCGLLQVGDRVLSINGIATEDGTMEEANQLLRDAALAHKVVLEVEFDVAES

GRIP2_7, Q9C0E4 = molecular target: GRIP2_7, Q9C0E4
Chain of GRIP2_7, Q9C0E4 (Q9C0E4 934-1023): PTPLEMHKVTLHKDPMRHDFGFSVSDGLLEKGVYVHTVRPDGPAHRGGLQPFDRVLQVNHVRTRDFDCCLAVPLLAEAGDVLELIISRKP

HTRA1, Q92743 = molecular target: HTRA1, Q92743
Chain of HTRA1, Q92743 (Q92743 360-477): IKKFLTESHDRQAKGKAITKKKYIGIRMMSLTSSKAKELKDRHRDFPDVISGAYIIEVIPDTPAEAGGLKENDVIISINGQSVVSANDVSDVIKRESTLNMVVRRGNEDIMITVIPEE

HTRA4, P83105 = molecular target: T5, HTRA4, P83105
T5 sequence (P83105 378-476, limits assumed, looked up): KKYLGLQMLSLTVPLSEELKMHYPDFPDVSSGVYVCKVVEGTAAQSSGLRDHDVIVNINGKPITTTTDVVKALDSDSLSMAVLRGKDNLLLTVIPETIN

Inadl_2, Q8NI35 = molecular target: Inadl_2, Q8NI35
Chain of Inadl_2, Q8NI35 (Q8NI35 238-335): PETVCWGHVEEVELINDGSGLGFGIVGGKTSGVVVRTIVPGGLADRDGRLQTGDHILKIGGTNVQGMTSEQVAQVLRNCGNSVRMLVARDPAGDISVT

Inadl_6, Q8NI35 = molecular target: Inadl_6, Q8NI35
Chain of Inadl_6, Q8NI35 (Q8NI35 1058-1167): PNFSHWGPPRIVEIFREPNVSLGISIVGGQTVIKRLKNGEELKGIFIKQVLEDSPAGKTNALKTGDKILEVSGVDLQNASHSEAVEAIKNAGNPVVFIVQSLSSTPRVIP

LDB3, O75112 = molecular target: LDB3, O75112
Chain of LDB3, O75112 (O75112 1-94): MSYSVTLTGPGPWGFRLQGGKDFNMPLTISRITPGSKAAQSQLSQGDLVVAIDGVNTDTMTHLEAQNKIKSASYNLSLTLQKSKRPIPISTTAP

LIMK2, P53671 = molecular target: LIMK2, P53671
Chain of LIMK2, P53671 (P53671 143-248): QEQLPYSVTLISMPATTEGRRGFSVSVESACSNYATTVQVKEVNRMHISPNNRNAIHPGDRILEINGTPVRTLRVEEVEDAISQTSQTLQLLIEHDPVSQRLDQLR

LIN7C, Q9NUP9 = molecular target: T6, LIN7C, Q9NUP9
T6 sequence (Q9NUP9 88-185, limits assumed, looked up): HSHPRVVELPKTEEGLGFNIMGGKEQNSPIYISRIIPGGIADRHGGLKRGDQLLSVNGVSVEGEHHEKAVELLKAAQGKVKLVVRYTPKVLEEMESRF

MAGI2_2, Q86UL8 = molecular target: MAGI2_2, Q86UL8
Chain of MAGI2_2, Q86UL8 (Q86UL8 410-522): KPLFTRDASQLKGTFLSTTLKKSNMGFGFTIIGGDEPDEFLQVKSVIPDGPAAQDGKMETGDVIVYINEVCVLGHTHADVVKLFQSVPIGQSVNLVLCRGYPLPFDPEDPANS

MAGI2_5, Q86UL8 = molecular target: MAGI2_5, Q86UL8
Chain of MAGI2_5, Q86UL8 (Q86UL8 915-1017): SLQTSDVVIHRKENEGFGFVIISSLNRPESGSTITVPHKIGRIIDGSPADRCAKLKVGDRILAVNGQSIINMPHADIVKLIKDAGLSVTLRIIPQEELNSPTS

MAGI3_2, Q5TCQ9 = molecular target: MAGI3_2, Q5TCQ9
Chain of MAGI3_2, Q5TCQ9 (Q5TCQ9 398-503): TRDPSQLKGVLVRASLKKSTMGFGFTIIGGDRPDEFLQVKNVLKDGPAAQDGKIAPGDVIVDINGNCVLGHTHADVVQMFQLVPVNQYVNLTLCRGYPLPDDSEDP

NHERF2_2, Q15599 = molecular target: NHERF2_2, Q15599
Chain of NHERF2_2, Q15599 (Q15599 142-238): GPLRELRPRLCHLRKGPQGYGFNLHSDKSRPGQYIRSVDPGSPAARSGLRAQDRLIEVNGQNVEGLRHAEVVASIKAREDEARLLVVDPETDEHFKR

NHERF3_3, Q5T2W1 = molecular target: T7, NHERF3_3, Q5T2W1
T7 sequence (Q5T2W1 238-333, limits assumed, looked up): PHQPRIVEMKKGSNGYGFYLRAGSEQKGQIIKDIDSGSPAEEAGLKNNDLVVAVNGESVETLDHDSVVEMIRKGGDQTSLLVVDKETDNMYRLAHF

NHERF4_4, Q86UT5 = molecular target: NHERF4_4, Q86UT5
Chain of NHERF4_4, Q86UT5 (Q86UT5 464-550): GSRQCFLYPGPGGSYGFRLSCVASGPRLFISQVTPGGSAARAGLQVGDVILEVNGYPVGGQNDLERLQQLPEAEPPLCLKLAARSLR

PARD3_3, Q8TEW0 = molecular target: PARD3_3, Q8TEW0
Chain of PARD3_3, Q8TEW0 (Q8TEW0 582-685): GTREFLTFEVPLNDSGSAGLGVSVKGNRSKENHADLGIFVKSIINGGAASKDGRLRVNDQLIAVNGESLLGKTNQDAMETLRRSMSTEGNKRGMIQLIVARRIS

RAPGEF6, Q8TEU7 = molecular target: T8, RAPGEF6, Q8TEU7
T8 sequence (Q8TEU7 525-625, limits assumed, looked up): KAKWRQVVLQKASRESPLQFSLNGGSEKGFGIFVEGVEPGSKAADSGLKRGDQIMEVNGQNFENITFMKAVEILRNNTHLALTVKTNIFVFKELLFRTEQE

SHANK1, Q9Y566 = molecular target: T9, SHANK1, Q9Y566
T9 sequence (Q9Y566 658-767, limits assumed, looked up): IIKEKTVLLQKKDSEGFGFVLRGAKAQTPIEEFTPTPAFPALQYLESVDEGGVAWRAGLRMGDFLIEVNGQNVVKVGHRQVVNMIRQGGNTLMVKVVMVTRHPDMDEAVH

SNX27, Q96L92 = molecular target: SNX27, Q96L92
[1] = plain residues with an end cap or a label only (N-terminal biotin on a linker: ado-ado)
[2] = plain residues with an end cap or a label only (N-terminal biotin on a linker: (peg)3)

Measured: pKd

LKDDELKTKL [SLCO1A2, P46721]
4.67: NHERF2_2, Q15599; [1]
below the threshold: APBA3_1, O96018; [1] | CARD11, Q9BXL7; [1] | DFNB31_1, Q9P202; [1] | DLG2_2, Q15700; [1] | DLG4_1, P78352; [1] | FRMPD2_2, Q68DX3; [1] | GRID2IP_1, A4D2P6; [1] | GRIP1_3, Q9Y3R0; [1] | GRIP2_4, Q9C0E4; [1] | GRIP2_7, Q9C0E4; [1] | HTRA1, Q92743; [1] | HTRA4, P83105; [1] | Inadl_2, Q8NI35; [1] | Inadl_6, Q8NI35; [1] | LDB3, O75112; [1] | LIMK2, P53671; [1] | LIN7C, Q9NUP9; [1] | MAGI2_2, Q86UL8; [1] | MAGI3_2, Q5TCQ9; [1] | NHERF4_4, Q86UT5; [1] | PARD3_3, Q8TEW0; [1] | RAPGEF6, Q8TEU7; [1]
3.8: SNX27, Q96L92; [1]
4.37: GRASP, Q7Z6J2; [1]
3.75: MAGI2_5, Q86UL8; [1]
4.17: NHERF3_3, Q5T2W1; [1]
5.62: SHANK1, Q9Y566; [1]

RRRRSQSRESQC [HBV-HBc, P03193]
4.4: MAGI2_2, Q86UL8; [2]
3.92: DFNB31_1, Q9P202; [2]
4.22: DLG2_2, Q15700; [2]
3.66: LIN7C, Q9NUP9; [2]
below the threshold: APBA3_1, O96018; [2] | CARD11, Q9BXL7; [2] | FRMPD2_2, Q68DX3; [2] | GRASP, Q7Z6J2; [2] | GRID2IP_1, A4D2P6; [2] | GRIP1_3, Q9Y3R0; [2] | GRIP2_4, Q9C0E4; [2] | GRIP2_7, Q9C0E4; [2] | HTRA1, Q92743; [2] | HTRA4, P83105; [2] | Inadl_2, Q8NI35; [2] | Inadl_6, Q8NI35; [2] | LDB3, O75112; [2] | LIMK2, P53671; [2] | NHERF2_2, Q15599; [2] | NHERF3_3, Q5T2W1; [2] | NHERF4_4, Q86UT5; [2] | PARD3_3, Q8TEW0; [2] | RAPGEF6, Q8TEU7; [2] | SHANK1, Q9Y566; [2]
4.64: MAGI3_2, Q5TCQ9; [2]
3.89: MAGI2_5, Q86UL8; [2]
4.76: SNX27, Q96L92; [2]
4.31: DLG4_1, P78352; [2]

DRIQSCLSDA [SBF1, O95248]
3.6: MAGI2_5, Q86UL8; [1]
below the threshold: APBA3_1, O96018; [1] | CARD11, Q9BXL7; [1] | DFNB31_1, Q9P202; [1] | DLG2_2, Q15700; [1] | DLG4_1, P78352; [1] | FRMPD2_2, Q68DX3; [1] | GRASP, Q7Z6J2; [1] | GRID2IP_1, A4D2P6; [1] | GRIP1_3, Q9Y3R0; [1] | GRIP2_4, Q9C0E4; [1] | GRIP2_7, Q9C0E4; [1] | HTRA1, Q92743; [1] | HTRA4, P83105; [1] | Inadl_2, Q8NI35; [1] | Inadl_6, Q8NI35; [1] | LDB3, O75112; [1] | LIMK2, P53671; [1] | MAGI2_2, Q86UL8; [1] | MAGI3_2, Q5TCQ9; [1] | NHERF2_2, Q15599; [1] | NHERF3_3, Q5T2W1; [1] | NHERF4_4, Q86UT5; [1] | PARD3_3, Q8TEW0; [1] | RAPGEF6, Q8TEU7; [1] | SHANK1, Q9Y566; [1] | SNX27, Q96L92; [1]
3.84: LIN7C, Q9NUP9; [1]
